Ends that are not written are not given here.
What was measured:
S. epidemridis = test: Crystal violet absorbance of bacteria adhering to peptide-coated nitrided steel; assay type: cell-based; details: overnight at 37° C., FIG. 14
Description: Nitrided steel was incubated with a solution of an antimicrobial peptide having the sequence RRIYGRGYIRR (SEQ ID NO: 1) (25 µl, 10 mg/ml/cm^2) at room temperature for 1 hour with a HBTU/DIEA catalyst in DMF to produce a coated surface.
Coated surfaces were inoculated with […] bacterial cells (S. epidemridis) and incubated overnight at 37° C. The surfaces were then washed with PBS and stained using Crystal Violet ([…]) for 15 minutes at room temperature. The surfaces were washed three times to remove any residual stain and the stain lifted in 70% ethanol. The absorbance of crystal violet was read at 560 nm to quantify the level of stain (FIG. 14). The amount of stain is directly related to the number of bacteria.

[1] = Peptide attachment to nitrided / nitrocarburised steel types, fluorescence microscopy pixel count; assay type: physicochemical; details: FIG. 1
Description: Nitrided metal surfaces were incubated overnight at room temperature on a rotamixer in a solution comprising a 9:0.5:0.5 ratio of dimethylformamide (DMF), DIPIA and HBTU, respectively, and 0.5 µg/ml of the peptide […] (SEQ ID NO: 5) tagged with a fluorescent label. Following incubation, surfaces were washed with DMF, which was replenished every 5 minutes for 50 minutes, followed by saline, which was also replenished every 5 minutes for 50 minutes, before being left to air dry.
(§1) The peptide percentage surface coverage of the metal was assessed by the use of fluorescent peptides and microscopy. Peptide coated metal was viewed by a fluorescence microscope at an exposure of 1.55 s using a 10× objective. Nine images for each 1 cm^2 piece of steel were obtained. Images were analysed using ImageJ software (NIH, MD, USA). The threshold from control images, obtained from nitrided metal which had not been treated with peptide, was adjusted until all of the pixels were removed, leaving an image with no staining. This acted as a control baseline. Images from corresponding experimental samples were then adjusted to this threshold value and the residual pixel count then recorded as a measure of peptide attachment.

bacteria [2] = test: Peptide-coated nitrided steel surfaces in a hospital unit over three months, bacteria counts
Description: A nitrided steel surface was coated with the peptide […] (SEQ ID NO: 5). The surface was dip-coated in a mixture of the peptide (3 µl of 10 mg/ml peptide per cm^2 of metal) and a catalyst (HBTU/DIEA mix) which adhered the peptide to the surface. Coating was carried out at room temperature for 12 hours.
Coated and uncoated steel surfaces were installed in a hospital unit, in the Accident and Emergency room, Operating Theatre, Ward 1 and the associated bathroom. Control surfaces and coated surfaces were situated in identical locations and tested over three months. After use the samples and data collected were sent to the University of Birmingham for analysis.

[3] = Peptide coverage of nitrided steel after environmental, cleaning or coating treatments, fluorescence microscopy; assay type: physicochemical
Description: as §1
Mild steel was nitrided using a standard process for 19 hours at 440° C. by Metaltech. The peptide […] tagged with a fluorescent label was immobilized on the surface of the nitrided steel as described in Example 1. Peptide-coated steel was incubated in the appropriate environmental treatment at room temperature for a suitable time which depended on the treatment used. Samples were washed with saline following treatment and peptide attachment analysed by microscopy as detailed in Example 1.
Mild steel was nitrided using a standard process by Metaltech. The peptide […] (SEQ ID NO: 5) tagged with a fluorescent label was immobilized on the surface of the nitrided steel as described in Example 1. Peptide-coated steel was incubated in the appropriate environmental treatment at room temperature for a suitable time which depended on the treatment used. Samples were washed with saline following treatment and peptide attachment analysed by microscopy as detailed in Example 1.
Steel was nitrided or plasma ferretic nitrocarburised as described in Example 1, after which the peptide […] (SEQ ID NO: 5), tagged with a fluorescent label was immobilised on the nitrided surface as described in Example 1.
Peptide-coated alpha steel samples were incubated in various standard cleaning or coating treatments at room temperature, for a suitable time which depended on the treatment used, in order to determine if any of these treatments affected the attachment of the peptide to the steel. […] This decrease may be partly accounted for by loss of fluorescence over the period of 3 weeks as the steel pieces were repeatedly exposed to light.

bacteria [4] = test: Long term study of peptide-coated surfaces on taps in a medical school, one year; details: taps in toilets of a medical school; after 12 months; FIG. 13
Source text: The peptide-coated surfaces described in Examples 8 and 9 were installed in a medical school. The surfaces were placed on taps in the toilets and were swabbed over a period of one year.

[5] = Peptide fluorescence on nitrided titanium after environmental treatments; assay type: physicochemical; details: FIG. 9
Description: The durability of immobilized peptide on the surface of nitrided titanium was assessed following different environmental treatments, as shown in FIG. 9. […] (SEQ ID NO: 5)-coated titanium was incubated in control PBS solution, trypsin, Dettola or treated with sandpaper at room temperature for a suitable time which depended on the treatment used. The mean pixel number above the threshold was then assessed by fluorescence microscopy. Importantly, peptide fluorescence was retained after any of the environmental treatments, indicating a strong and durable interaction between peptide and metal.

[6] = tested on: colony forming unit (CFU) counts; test: CFU count on peptide-coated versus control nitrided α2 steel attached to areas with high predicted CFU counts; details: α2 steel coated with unlabelled peptide; swabs on days 1, 2, 7, 8 and 9; all areas tested; FIG. 7
Description: α2 steel was prepared using a standard nitriding process and coated with 1 µg/ml of the unlabelled peptide […] (SEQ ID NO: 5) using the method as described in Example 1. Peptide coated, or control uncoated steel samples were then attached to areas where high colony forming unit (CFU) counts were predicted (e.g. toilet seat, kitchen tap etc.). Cotton wool buds, dipped in saline, were used to swab surfaces on days 1, 2, 7, 8 and 9. Buds were placed in sterelin tubes and used to inoculate blood agar plates, following which plates were incubated for 48 hours at 37° C. before CFU counts were taken.

[7] = Peptide fluorescence on nitrided titanium over 1 to 4 weeks in PBS; assay type: physicochemical; details: FIG. 8; for change of pixel number: nitrided titanium in PBS
Description: Having established the durability and the efficacy of immobilized peptides on a steel surface, the efficacy of peptides immobilized on a titanium surface was assessed. Nitrided titanium was prepared by Metaltech. […] (SEQ ID NO: 5), tagged with a fluorescent label, was immobilised on the surface of the nitrided titanium as described previously. Peptide-coated samples were incubated in PBS solution at room temperature for between 1 and 4 weeks, following which fluorescence, and the resulting pixel number above threshold, was assessed as described previously by fluorescence microscopy.

bacteria [8] = test: Peptide-coated nitrided steel surfaces on door handles, city hospital Outpatients area, three months
Description: A further study was carried out in the Outpatients area of a city hospital. This is a very busy area of the hospital and sees a high volume of patient and staff traffic. The peptide used was […] (SEQ ID NO: 5), and the coated steel surfaces were prepared as in Example 8.
Control and coated surfaces were placed on door handles in the Outpatients area. […] We saw 1 colony growth from the surfaces, which is believed to be due to the frequency of use of the surfaces. Surfaces were touched on average every 2 minutes during an observation period and, in a lot of cases, the surfaces had been touched immediately prior to the swabbing being undertaken.

bacteria [9] = test: Bacterial growth (absorbance) on peptide-coated nitrided titanium used as growth plate; assay type: cell-based; details: antimicrobial-peptide-coated nitrided titanium, in comparison to the controls; FIG. 10
Description: Nitrided titanium was prepared by Metaltech, and coated as described previously with the peptide […] (SEQ ID NO: 5), aside from a control (peptide) group in which nitrided titanium was coated with a non-antimicrobial peptide, and a control (titanium) group where the nitrided titanium remained uncoated. A positive control group, consisting of uncoated tissue culture plastic, was also used. The surfaces were washed and used as growth plates for bacteria. One group of antimicrobial peptide-coated titanium surfaces was immediately used as a growth plate for bacteria (treatment (immediate)). Another antimicrobial peptide-coated titanium group (treatment (environment)) was treated with PBS, followed by trypsin/EDTA, followed by Dettol followed by sandpapering, following which the surfaces were used as a growth plate for bacteria. The Absorbance relates to the bacteria number growing on the surface after incubation (FIG. 10). Low values indicate no bacterial growth, while high values indicate high numbers of bacteria.

RRIYGRGYIRR (RRYIGRGYIRR) [antimicrobial peptide coated on nitrided steel]
number of bacteria adhering to the surface (crystal violet absorbance at 560 nm) (S. epidemridis): significantly reduce the number of bacteria adhering to the surface

RRRRRRGALAGRRRRRRGALAG (also: fluorescent tag, immobilized on steel or titanium) [antimicrobial peptide immobilized covalently on nitrided steel or titanium; fluorescently tagged in the attachment studies]
preferential binding to steel type ([1]; comparison of eight steel types): highest binding affinity for alpha steel types
mean pixel counts (peptide attachment) ([1]; eight steel types (α1-3, β1-3, P1-P2), fluorescently tagged peptide): above 0
percentage effectiveness of the coated surfaces compared to control surfaces (bacteria [2]; hospital setting, all time points over three months, FIG. 11B): ≥ 99%
inhibition of bacterial growth on coated surfaces (bacteria [2]; hospital unit, three months, FIG. 11): complete inhibition of bacterial growth
colony forming units on the one coated plate that showed growth (bacteria [2]; month 2, believed due to contamination during swabbing or plating): one
difference in pixel counts between treatments ([3]; P2 steel group as printed in the beta steel paragraph, FIG. 5, H=13.7, p=0.033): significant difference
differences in pixel number between treatments ([3]; PlasOx 1 steel, FIG. 6, H=15.4 p=0.017): significant
differences in pixel number between treatments ([3]; PlasOx 2 steel, FIG. 6, H=12.7 p=0.048): significant
pixel number, PlasOx 2 steel versus PlasOx 1 steel ([3]; following environmental treatment, in most instances, FIG. 6): higher for PlasOx 2 steel than PlasOx 1 steel
peptide coverage of nitrided steel before and after environmental treatments ([3]; mild steel nitrided 19 hours at 440° C., room temperature, FIG. 2): remains at a similar level
peptide coverage of nitrided steel following environmental treatment ([3]; nitrided mild steel, room temperature, FIG. 3): remains constant
difference in pixel counts between treatments ([3]; α1 steels, FIG. 4, H=19.4 p=0.004): statistically significant difference
difference in pixel counts between treatments ([3]; α2 steels, FIG. 4, H=12.4, p=0.053): no significant difference
difference in pixel counts between treatments ([3]; α3 steels, FIG. 4, H=12.8, p=0.047): statistically significant difference
difference in pixel counts between treatments ([3]; β1 steels, FIG. 5, H=10.6, p=0.103): no significant difference
difference in pixel counts between treatments ([3]; β steels (number not given), FIG. 5, H=10.9, p=0.09): no significant difference
inhibition of bacterial growth on treated surfaces (bacteria [4]): inhibition of bacterial growth was still observed
peptide fluorescence after treatment ([5]; control solution, trypsin or Dettol): remained similar
peptide fluorescence after treatment ([5]; mechanical agitation using sandpaper): retained, albeit at a lower level
mean CFU count, peptide coated versus control [6]: consistently higher mean CFU count on control pieces of metal
change of pixel number ([7]; after 2 weeks): remained relatively constant
change of pixel number ([7]; between 1 and 2 weeks): decreased considerably
pixels above threshold ([7]; nitrided titanium, after 1, 2, 3 and 4 weeks in PBS solution): Pixels were observed above the threshold
percentage effectiveness of the coated surfaces compared to control surfaces (bacteria [8]; city hospital setting, all time points over three months, FIG. 12B): ≥ 99%
levels of bacteria on peptide-coated surfaces (bacteria [8]; door handles, Outpatients area of a city hospital, FIG. 12): 1 cfu
effectiveness (bacteria [8]; door handles, Outpatients area, Example 9): greater than 99%
absorbance (bacteria number growing on the surface) (bacteria [9]): very low absorbance values

Reference: US10526691B2, “Functionalized surface” (priority 2015, dated 2020)
